For assay [1], the target named is Gβ5-RGS7^249-469 complex (bovine) (UniProt O46470). Put plainly: GST pull-down from COS-7 lysate, western blot.
The target in assay [2] is full-length RGS7-Gβ5 complex (recombinant, co-expressed in cells) (bovine) (UniProt O46470). Put plainly: GST pull-down from COS-7 lysate, western blot.
Assay [3] concerns the target native RGS7-Gβ5 complex from mouse brain extract (mouse) (UniProt P62881). As to the kind of experiment: GST pull-down from mouse brain extract, western blot.
For assay [4], the target named is muscarinic acetylcholine M3 receptor (M3R), full length, expressed in CHO cells (human) (UniProt P20309). As to the kind of experiment: cell-based or functional assay.
Assay [5] deals with T1, native RGS7-Gβ5 complex from mouse brain extract (mouse, UniProt P62881 1-353; O54829 1-469, limits assumed).
T1 construct: Native complex in a cholate extract of brain membranes; may also carry R7BP; also called native Gβ5-RGS7; Gβ5-RGS complexes (brain)
T1 sequence (looked up) 1: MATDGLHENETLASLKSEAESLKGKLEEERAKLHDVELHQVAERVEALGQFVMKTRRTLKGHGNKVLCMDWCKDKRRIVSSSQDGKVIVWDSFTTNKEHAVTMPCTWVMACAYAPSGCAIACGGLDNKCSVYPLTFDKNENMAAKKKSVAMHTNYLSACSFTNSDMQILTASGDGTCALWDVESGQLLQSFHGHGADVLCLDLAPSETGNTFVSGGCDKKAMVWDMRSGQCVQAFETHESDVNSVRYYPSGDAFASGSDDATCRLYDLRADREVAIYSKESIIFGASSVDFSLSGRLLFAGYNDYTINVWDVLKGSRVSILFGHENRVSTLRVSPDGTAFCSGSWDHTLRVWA
T1 sequence (looked up) 2: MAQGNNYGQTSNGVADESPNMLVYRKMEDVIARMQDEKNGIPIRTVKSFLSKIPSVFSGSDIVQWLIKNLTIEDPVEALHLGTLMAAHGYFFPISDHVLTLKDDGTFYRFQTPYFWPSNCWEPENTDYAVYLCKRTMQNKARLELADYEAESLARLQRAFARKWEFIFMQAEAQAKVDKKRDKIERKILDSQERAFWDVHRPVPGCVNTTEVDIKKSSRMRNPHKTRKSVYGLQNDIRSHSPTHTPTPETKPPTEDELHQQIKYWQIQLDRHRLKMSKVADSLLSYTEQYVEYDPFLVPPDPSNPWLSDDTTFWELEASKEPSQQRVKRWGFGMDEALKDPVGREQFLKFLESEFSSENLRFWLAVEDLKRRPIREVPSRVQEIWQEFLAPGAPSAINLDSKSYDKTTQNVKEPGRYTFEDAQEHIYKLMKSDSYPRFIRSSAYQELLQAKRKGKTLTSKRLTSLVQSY
As to the kind of experiment: GST pull-down from mouse brain extract, western blot with anti-RGS7 and anti-Gβ5.

Assay [6] has as its target T2, Gβ5-RGS7 dimer (CFP-Gβ5/YFP-RGS7) (UniProt O14775+O46470).
T2 construct: YFP fusion of full-length RGS7 (YFP-RGS7) and CFP-Gβ5; expressed in transfected cells; host or cells: COS-7 (transient; lysate measured)
T2 sequence (O14775 1-353 isoform O14775-2): T1 sequence (looked up) 1 with D4E, V242I
T2 sequence (O46470 1-469): T1 sequence (looked up) 2 with H259Q, V298A, R371K, R452K, T456S
As to the kind of experiment: FRET between CFP-Gβ5 and YFP-RGS7 in COS-7 cell lysates. The class given is binding, bovine. As to conditions: GST-R7DEP added to COS-7 lysate; GST alone had no effect. The source says: To measure FRET, COS-7 cells were transiently transfected with plasmids encoding YFP-RGS7 and CFP-Gβ5. Control cells were co-transfected with YFP-RGS7 together with untagged Gβ5, and CFP-Gβ5 together with untagged RGS7. The lysates of these cells were subjected to spectroscopic analysis, as described in Example 1. Shown are the resulting FRET spectra obtained after subtraction of the YFP background fluorescence during the CFP excitation and CFP “bleed-through” into the YFP emission channel. A. Right panel: GST R7-DEP (black symbols) or buffer (open symbols) was added to the lysate prior to recording of the spectra. […]
To permit the association of exogenously added DEP domain with Gβ5, the intra-molecular interaction between the intrinsic DEP and Gβ5 must be dynamic and have relatively low affinity. To investigate this hypothesis, a protein-protein binding assay based on fluorescence resonance energy transfer (FRET) was devised. […]
FRET between CFP— and YFP-tagged proteins was determined on a photon counting spectrofluorometer (PTI, Inc.) (28). Briefly, the cell lysates were placed in a 4 ml quartz cuvette, and the spectra were recorded at room temperature with continuous mixing of the lysate with a magnetic stirrer. CFP was excited at 433 nm (2-4 nm slit width, depending on the intensity of fluorescence signal) and the emission spectra were obtained between 465 and 555 nm. […]

Another assay deals with T3, GST (UniProt P08515 1-218 = GST).
T3 construct: Negative control in pull-down and FRET assays; also called GST alone; immobilized GST
As to the kind of experiment: GST pull-down from CHO cell lysate.

Positions count from the first letter of the chain named. A value given as a limit tells only on which side of the number the result lay.

T3 sequence (P08515 whole entry): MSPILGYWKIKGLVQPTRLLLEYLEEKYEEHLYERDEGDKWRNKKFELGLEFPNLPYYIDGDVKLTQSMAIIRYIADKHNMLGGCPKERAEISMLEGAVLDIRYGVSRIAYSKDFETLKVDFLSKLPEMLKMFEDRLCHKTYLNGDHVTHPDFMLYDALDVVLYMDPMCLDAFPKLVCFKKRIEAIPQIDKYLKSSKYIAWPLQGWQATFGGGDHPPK
Sequence of muscarinic acetylcholine M3 receptor (M3R), full length, expressed in CHO cells (human) (P20309 whole entry): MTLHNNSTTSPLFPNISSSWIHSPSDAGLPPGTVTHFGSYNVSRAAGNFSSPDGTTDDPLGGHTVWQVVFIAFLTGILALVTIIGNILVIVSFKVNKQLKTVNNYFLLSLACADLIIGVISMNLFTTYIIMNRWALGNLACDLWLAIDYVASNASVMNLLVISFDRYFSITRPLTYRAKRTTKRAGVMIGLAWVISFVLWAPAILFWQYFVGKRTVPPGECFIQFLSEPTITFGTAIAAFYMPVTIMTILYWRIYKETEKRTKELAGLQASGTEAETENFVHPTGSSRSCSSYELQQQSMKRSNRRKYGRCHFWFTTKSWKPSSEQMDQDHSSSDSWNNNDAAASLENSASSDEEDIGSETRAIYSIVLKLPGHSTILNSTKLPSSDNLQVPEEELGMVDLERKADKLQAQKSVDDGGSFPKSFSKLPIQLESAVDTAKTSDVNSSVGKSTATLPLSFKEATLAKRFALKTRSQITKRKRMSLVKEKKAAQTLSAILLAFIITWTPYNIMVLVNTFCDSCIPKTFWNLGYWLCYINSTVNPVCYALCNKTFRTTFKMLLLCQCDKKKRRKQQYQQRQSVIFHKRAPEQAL
Sequence of Gβ5-RGS7^249-469 complex (bovine) (O46470 249-469, one chain of several): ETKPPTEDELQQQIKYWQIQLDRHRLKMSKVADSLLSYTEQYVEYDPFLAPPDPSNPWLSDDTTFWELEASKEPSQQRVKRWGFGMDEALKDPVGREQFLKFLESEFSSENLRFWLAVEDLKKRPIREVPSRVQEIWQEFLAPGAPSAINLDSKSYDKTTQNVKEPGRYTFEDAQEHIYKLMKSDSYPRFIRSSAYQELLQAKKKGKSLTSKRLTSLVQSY

Take “GST-R7DEP ED/SG mutant (E73S/D74G) (from UniProt O46470 34-124)”: the fold reduction in the amount of Gβ5 pulled down relative to the wild-type DEP domain in assay [1], in assay [2] and in assay [3] was over 10 fold throughout.

For “full-length RGS7 ED/SG mutant (RGS7^ED/SG, E73S/D74G) co-expressed with Gβ5 (from UniProt O46470 1-469)”, the reduction of the amplitude of carbachol-induced Ca^2+ transients in CHO-R7BP cells in assay [4] is over 50%.

B1: GST-R9DEP (GST fusion of the putative DEP domain of RGS9, amino acids 20-117 of bovine RGS9) (other, UniProt O46469 20-117, looked up)
chain: IEALVKDMQDPDTGVRVQNQKVKVVSIPHAMTGSDVLQWISQRLWISGLEAQNLGNFIVKYGYIYPLQDPRNLTLKPDSSLYRFQTPYFWPTQQWPAE
notes: range 20-117; not shown: glutathione S-transferase (GST) tag of the pGEX-KG vector
Regarding B1, in assay [5], the binding result is on record as “no binding”.

B2: GST-R7DEP: GST fusion construct containing the amino acids 34-124 of bovine RGS7 (protein)
chain: MQDEKNGIPIRTVKSFLSKIPSVFSGSDIVQWLIKNLTIEDPVEALHLGTLMAAHGYFFPISDHVLTLKDDGTFYRFQTPYFWPSNCWEPE
modifications: left off: a dimerising Fc or GST
notes: GST fusion construct containing the amino acids 34-124 of bovine RGS7
For the molecule B2, the “FRET reduction, of the total FRET signal” value in assay [6] was 15-20%.

B3: YFP-DEP (amino acids 1-124 of full-length bovine RGS7 fused to the C-terminus of YFP) (other, UniProt O46470 1-124, looked up)
chain: MAQGNNYGQTSNGVADESPNMLVYRKMEDVIARMQDEKNGIPIRTVKSFLSKIPSVFSGSDIVQWLIKNLTIEDPVEALHLGTLMAAHGYFFPISDHVLTLKDDGTFYRFQTPYFWPSNCWEPE
notes: range 1-124; also called DEP domain; DEP domain of RGS7; not shown: yellow fluorescent protein (YFP) of the pEYFPC1 vector
Turning to B3, the binding result with GST is reported as “no binding”.

Source of the values: patent US20100183584A1, “CONFORMATION AND ACTIVITY OF GBETA5 COMPLEXES” (University Of Miami, priority 2007, published 2010).
